Assay results from patent US20220242953A1 (JIANGSU HENGRUI MEDICINE, published 2022).

Assays:
[1] = biological target: T1, Human CD3 antigen for detection (SinoBiological cat #CT038-H2508H); human CD3 epsilon-His and human CD3 … (human, UniProt P07766 23-126; P04234 22-105); experiment: Biacore T200 SPR, bispecific antibody captured, CD3 antigen as analyte, 1:1 Langmuir fit
T1 construct: Bought antigen
Protocol: (§1) The detection of antibody affinity to B7H3 and CD3 was performed in the form of capture antibody. BsAb was captured by CM5 biosensor chip (Cat. #BR-1005-30, GE) or Protein A (Cat. #29127556, GE) biosensor chip coupled with Anti-Human IgG Antibody (Cat. #BR-1008-39, Lot. #10260416, GE), and then each antigen flowed through the surface of the chip. The reaction signals were detected in real time with the Biacore T200 instrument to obtain the binding and dissociation curves. After the dissociation of each experimental cycle was completed, the chip was washed and regenerated with regeneration buffer Glycine1.5 (Cat #BR100354, GE) or 3 M MgCl₂ (from Human antibody capture kit, Cat. #BR100839, GE). The data were fitted with the (1:1) Langmuir model using GE Biacore T200 Evaluation version 3.0 software, and the affinity values were obtained.

[2] = biological target: human CD3 on the cell surface (Jurkat recombinant cells; T cells of PBMC) (human, UniProt P07766 23-207; P04234 22-171); experiment: FACS on Jurkat recombinant cells expressing CD3, APC anti-human IgG Fc detection, geometric mean fluorescence
Sequence of human CD3 on the cell surface (Jurkat recombinant cells; T cells of PBMC) (P07766 23-207, chain 1 of 2): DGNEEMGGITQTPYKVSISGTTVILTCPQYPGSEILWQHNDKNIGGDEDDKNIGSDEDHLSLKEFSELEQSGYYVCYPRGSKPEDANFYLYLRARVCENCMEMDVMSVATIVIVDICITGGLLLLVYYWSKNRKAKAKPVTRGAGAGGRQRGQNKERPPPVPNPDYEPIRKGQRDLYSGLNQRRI
Sequence of human CD3 on the cell surface (Jurkat recombinant cells; T cells of PBMC) (P04234 22-171, chain 2 of 2): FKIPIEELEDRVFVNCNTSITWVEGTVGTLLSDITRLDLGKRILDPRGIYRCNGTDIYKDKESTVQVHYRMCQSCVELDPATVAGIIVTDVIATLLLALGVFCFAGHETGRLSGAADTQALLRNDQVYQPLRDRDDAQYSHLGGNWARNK
Protocol: (§2) The ability of bispecific antibodies to bind to cell surface antigens was detected by FACS method.
(§3) FACS buffer (98% PBS, 2% FBS) was added into a 96-well U-shaped bottom plate (corning, 3795) to resuspend the cells, the serially diluted antibodies were added, incubated at 4° C. for 1 hour, and the plate was washed with FACS buffer twice. Then APC anti-human IgG Fc Antibody (biolegend, Cat #409306, dilution at 1:50) was added into each well, incubated at 4° C. for 30 minutes, washed twice, the cells were resuspended in FACS buffer, and finally the fluorescence signal values were read by FACS CantoII (BD).

[3] = biological target: T2, human B7H3 on the cell surface (A498, CT26/hB7H3, U87, Detroit562 cells) (human, UniProt Q5ZPR3 29-534); experiment: FACS on CT26/hB7H3 cells over-expressing human B7H3, APC anti-human IgG Fc detection, geometric mean fluorescence
T2 construct: Endogenous on A498, U87 and Detroit562 tumor cells, over-expressed on CT26/hB7H3
T2 sequence: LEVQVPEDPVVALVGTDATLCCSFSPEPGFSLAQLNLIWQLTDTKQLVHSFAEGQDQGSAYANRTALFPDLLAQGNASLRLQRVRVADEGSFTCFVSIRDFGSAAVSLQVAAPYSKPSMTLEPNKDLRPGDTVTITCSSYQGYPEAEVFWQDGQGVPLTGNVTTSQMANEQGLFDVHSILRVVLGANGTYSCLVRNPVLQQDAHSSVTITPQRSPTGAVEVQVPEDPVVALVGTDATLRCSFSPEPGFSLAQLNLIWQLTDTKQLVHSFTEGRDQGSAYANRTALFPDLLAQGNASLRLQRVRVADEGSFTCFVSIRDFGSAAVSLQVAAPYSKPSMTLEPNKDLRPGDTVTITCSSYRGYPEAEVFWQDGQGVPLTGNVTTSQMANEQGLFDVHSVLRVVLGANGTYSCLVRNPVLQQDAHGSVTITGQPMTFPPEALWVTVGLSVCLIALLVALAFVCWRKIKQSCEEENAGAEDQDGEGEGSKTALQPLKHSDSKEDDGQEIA
Protocol: as §2, §3

[4] = biological target: T2, human B7H3 on the cell surface (A498, …); experiment: FACS on A498 cells expressing human B7H3, APC anti-human IgG Fc detection, geometric mean fluorescence
Protocol: as §2, §3

[5] = biological target: T2, human B7H3 on the cell surface (A498, …); experiment: cell-based or functional assay
[6] = biological target: T3, Monkey CD3 antigen for detection (Acro biosystem cat #CDD-C52W4); monkey CD3 epsilon-His and monkey CD3 … (monkey (cyno), UniProt Q95LI5 22-117; Q95LI8 22-105); experiment: Biacore T200 SPR, bispecific antibody captured, antigen as analyte, 1:1 Langmuir fit
T3 construct: Bought antigen
T3 sequence (Q95LI5 other isoform, or with tags, fused parts or gaps mutant, chain 1 of 2): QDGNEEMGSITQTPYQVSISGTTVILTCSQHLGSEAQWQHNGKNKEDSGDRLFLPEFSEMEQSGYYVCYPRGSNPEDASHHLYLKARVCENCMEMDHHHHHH
T3 sequence (Q95LI8 other isoform, or with tags, fused parts or gaps mutant, chain 2 of 2): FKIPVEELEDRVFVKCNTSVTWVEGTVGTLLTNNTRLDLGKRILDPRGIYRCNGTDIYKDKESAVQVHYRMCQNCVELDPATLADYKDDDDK
Protocol: as §1

[7] = biological target: T1, Human CD3 antigen for detection …; experiment: as above
Protocol: as §1

[8] = biological target: T4, Monkey B7H3 antigen for detection (SinoBiological cat #90806-C08H) (monkey (cyno)); experiment: as above
T4 construct: Bought antigen; also called monkey (cyno) B7H3
T4 chain: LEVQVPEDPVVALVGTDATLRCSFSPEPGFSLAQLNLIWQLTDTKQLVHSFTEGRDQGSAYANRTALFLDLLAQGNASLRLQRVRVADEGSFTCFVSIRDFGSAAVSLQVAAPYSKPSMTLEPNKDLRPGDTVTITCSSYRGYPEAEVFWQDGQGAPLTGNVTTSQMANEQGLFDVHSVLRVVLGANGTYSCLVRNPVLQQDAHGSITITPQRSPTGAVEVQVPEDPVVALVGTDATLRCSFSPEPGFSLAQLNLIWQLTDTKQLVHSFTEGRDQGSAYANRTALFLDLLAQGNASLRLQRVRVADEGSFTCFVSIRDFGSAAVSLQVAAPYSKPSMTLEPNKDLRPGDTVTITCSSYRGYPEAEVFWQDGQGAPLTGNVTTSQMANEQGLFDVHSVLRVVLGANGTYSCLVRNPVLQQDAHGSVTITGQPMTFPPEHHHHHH
Protocol: as §1

[9] = biological target: T5, Human B7H3 antigen for detection (SinoBiological cat #11188-H08H) (human, UniProt Q5ZPR3 29-461); experiment: as above
T5 construct: Bought antigen
T5 sequence: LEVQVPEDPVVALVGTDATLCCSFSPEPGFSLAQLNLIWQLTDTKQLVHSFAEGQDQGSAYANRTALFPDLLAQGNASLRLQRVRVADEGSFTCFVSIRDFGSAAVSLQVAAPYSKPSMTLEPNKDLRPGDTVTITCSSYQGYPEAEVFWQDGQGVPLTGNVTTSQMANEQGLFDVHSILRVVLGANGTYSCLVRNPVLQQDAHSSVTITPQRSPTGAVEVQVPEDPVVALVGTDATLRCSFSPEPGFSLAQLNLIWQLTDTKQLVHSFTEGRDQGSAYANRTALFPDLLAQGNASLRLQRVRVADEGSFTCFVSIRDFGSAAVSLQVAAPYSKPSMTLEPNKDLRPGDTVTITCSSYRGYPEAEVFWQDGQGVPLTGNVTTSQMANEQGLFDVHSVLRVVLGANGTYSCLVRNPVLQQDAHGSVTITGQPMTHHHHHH
Protocol: as §1

T1 sequence (P07766 other isoform, or with tags, fused parts or gaps H2508H H2508H, chain 1 of 2): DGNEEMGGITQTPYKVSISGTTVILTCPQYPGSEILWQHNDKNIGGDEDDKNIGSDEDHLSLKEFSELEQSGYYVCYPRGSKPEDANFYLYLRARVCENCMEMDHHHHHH
T1 sequence (P04234 other isoform, or with tags, fused parts or gaps H2508H H2508H, chain 2 of 2): as the sequence (Q95LI8 other isoform, or with tags, fused parts or gaps mutant, chain 2 of 2) above, with V5I, K15N, V20I, T32S, N33D, N34I, A64T, N74S, L83V counted along it

B1: bispecific antibody 113 (AFF 3-2) (bispecific antibody)
chain 1: not shown
chain 2: QTVVTQEPSFSVSPGGTVTLTCGLSSGSVSTSHYPSWYQQTPGQAPRMLIYNTNTRSSGVPDRFSGSILGNKAALTITGAQADDESDYYCAIHVDRDIWVFGGGTKLTVLGGGGSGGGGSGGGGSQVQLVQSGGGVVQPGTSLRLSCAASGFIFSSSAMHWVRQAPGKGLEWVAVISYDGSNKYYVDSVKGRFTISRDNSKNTLYLQMNSLRAEDTAVYYCARSARLYASFDYWGQGALVTVSSGGGDKTHTCPPCPAPEAAGGPSVFLFPPKPKDTLMISRTPEVTCVVVDVSHEDPEVKFNWYVDGVEVHNAKTKPREEQYNSTYRVVSVLTVLHQDWLNGKEYKCKVSNKALPAPIEKTISKAKGQPREPQVCTLPPSREEMTKNQVSLSCAVKGFYPSDIAVEWESNGQPENNYKTTPPVLDSDGSFFLVSKLTVDKSRWQQGNVFSCSVMHEALHNHYTQKSLSLSPGK
notes: B7H3 bivalent CD3-B7H3 bispecific antibody, CD3 VH HRH-2
Kd [1]: 77.2 nM

B2: NC2 (negative control bispecific antibody; B7H3 binding domain retained, CD3 binding domain replaced with a non-related antibody) (bispecific antibody)
chain 1: not shown
chain 2: B1 chain 2
notes: Control arm said to be anti-fluorescein
binding result [2]: no binding (tested: about 8000 nM (log 3.9 on the axis)) | EC50 (read off the curve) [3]: ~4 nM | EC50 (read off the curve) [4]: ~30 nM

B3: bispecific antibody 131 (AFF3-1) (bispecific antibody)
chain 1: not shown
chain 2: B1 chain 2
notes: B7H3 bivalent CD3-B7H3 bispecific antibody, CD3 VH HRH-1; two-chain knob/hole Fc format
Kd [1]: 40.7 nM

B4: bispecific antibody 154 (AFF3-4) (bispecific antibody)
chain 1: not shown
chain 2: B1 chain 2
notes: B7H3 bivalent CD3-B7H3 bispecific antibody, CD3 VH HRH-4
Kd [1]: 69.7 nM

B5: bispecific antibody 177 (AFF3-7) (bispecific antibody)
chain 1: not shown
chain 2: B1 chain 2
notes: B7H3 bivalent CD3-B7H3 bispecific antibody, CD3 VH HRH-7
Kd [1]: 162 nM

B6: NC1 (negative control bispecific antibody; B7H3 binding domain replaced with a non-related antibody, CD3 binding domain retained) (bispecific antibody)
chain 1: not shown
chain 2: DIQMTQSPSSVSASVGDRVTITCRASQDIANYLSWYQQKPGKSPKLLIYGTSNLEVGVPSRFSGSRSGTDFTLTISSLQPEDFATYYCLQDKEFPRTFGGGTKVEIKGGGGSGGGGSGGGGSEVQLVESGGGLVQPGGSLRLSCAASGFTFSHYYMAWVRQAPGKGLEWVTSISYEGDITYYGDSVKGRFTISRDNSKNTLYLQMNSLRAEDTATYYCASQTLRESFDYWGQGTLVTVSSGGGDKTHTCPPCPAPEAAGGPSVFLFPPKPKDTLMISRTPEVTCVVVDVSHEDPEVKFNWYVDGVEVHNAKTKPREEQYNSTYRVVSVLTVLHQDWLNGKEYKCKVSNKALPAPIEKTISKAKGQPREPQVCTLPPSREEMTKNQVSLSCAVKGFYPSDIAVEWESNGQPENNYKTTPPVLDSDGSFFLVSKLTVDKSRWQQGNVFSCSVMHEALHNHYTQKSLSLSPGK
notes: Control arm said to be an anti-fluorescein antibody; CD3 scFv with HRH-3
Emax (%), PBMC-mediated killing of A498 cells (B7H3 high) [5]: 20.9% | Emax (%), PBMC-mediated killing of Detroit562 cells (B7H3 low) [5]: 0.95% | Emax (%), PBMC-mediated killing of U87 cells (B7H3 intermediate) [5]: 3.8% | IC50 (nM), PBMC-mediated killing of A498 cells (B7H3 high) [5]: > 300 nM | IC50 (nM), PBMC-mediated killing of Detroit562 cells (B7H3 low) [5]: > 300 nM | IC50 (nM), PBMC-mediated killing of U87 cells (B7H3 intermediate) [5]: > 300 nM | EC50 (read off the curve) [2]: ~70 nM | binding result [4]: no binding (tested: about 5000 nM (log 3.7 on the axis))

B7: MGD009 (positive control bispecific antibody, three chains) (bispecific antibody)
chain 1: DIQLTQSPSFLSASVGDRVTITCKASQNVDTNVAWYQQKPGKAPKALIYSASYRYSGVPSRFSGSGSGTDFTLTISSLQPEDFATYYCQQYNNYPFTFGQGTKLEIKGGGSGGGGEVQLVESGGGLVQPGGSLRLSCAASGFTFSTYAMNWVRQAPGKGLEWVGRIRSKYNNYATYYADSVKDRFTISRDDSKNSLYLQMNSLKTEDTAVYYCVRHGNFGNSYVSWFAYWGQGTLVTVSSGGCGGGEVAALEKEVAALEKEVAALEKEVAALEKGGGDKTHTCPPCPAPEAAGGPSVFLFPPKPKDTLMISRTPEVTCVVVDVSHEDPEVKFNWYVDGVEVHNAKTKPREEQYNSTYRVVSVLTVLHQDWLNGKEYKCKVSNKALPAPIEKTISKAKGQPREPQVYTLPPSREEMTKNQVSLWCLVKGFYPSDIAVEWESNGQPENNYKTTPPVLDSDGSFFLYSKLTVDKSRWQQGNVFSCSVMHEALHNHYTQKSLSLSPGK
chain 2: QAVVTQEPSLTVSPGGTVTLTCRSSTGAVTTSNYANWVQQKPGQAPRGLIGGTNKRAPWTPARFSGSLLGGKAALTITGAQAEDEADYYCALWYSNLWVFGGGTKLTVLGGGGSGGGGEVQLVESGGGLVQPGGSLRLSCAASGFTFSSFGMHWVRQAPGKGLEWVAYISSDSSAIYYADTVKGRFTISRDNAKNSLYLQMNSLRDEDTAVYYCGRGRENIYYGSRLDYWGQGTTVTVSSGGCGGGKVAALKEKVAALKEKVAALKEKVAALKE
chain 3: not shown
notes: B7H3 monovalent B7H3xCD3 DART-Fc
Kd [6]: 4.94 nM | Kd [7]: 78.1 nM | Kd [8]: 2.65 nM | Kd [9]: 1.96 nM | EC50 (read off the curve) [2]: ~100 nM | EC50 (read off the curve) [3]: ~10 nM
